Measured values from publication PMC4240585, “Solution Structure of the SGTA Dimerisation Domain and Investigation of Its Interactions with the Ubiquitin-Like Domains of BAG6 and UBL4A” (PLoS ONE, 2014).

Columns and labels:
[1] = molecular target: T1, UBL domain of UBL4A (UBL4A_UBL), residues 1-74 (human, UniProt P11441 1-74, RED-NHS (amine reactive) dye, in the MST experiment only); experiment: MST; labelled UBL at 0.4 µM, unlabelled SGTA_NT 400 µM to 24.4 nM; 100 mM MES pH 6.0, 150 mM KCl, 0.5 mM TCEP; 25 °C; Monolith NT.115; conditions: both partners purified
T1 sequence (looked up): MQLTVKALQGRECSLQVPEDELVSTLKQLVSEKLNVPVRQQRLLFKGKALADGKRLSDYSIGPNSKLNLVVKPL

[2] = molecular target: T1, UBL domain of UBL4A (UBL4A_UBL), …; experiment: ITC; 30 °C, 100 mM MES pH 6.0, 200 mM KCl; 20 injections of 2 µL SGTA_NT (dimer, 500 µM) into UBL at 50 µM (monomer); independent binding sites model; conditions: both partners purified
[3] = molecular target: the molecule itself; experiment: NMR solution structure; SGTA_NT dimer; mixed isotope labelling, filtered NOESY for intermolecular NOEs; 100 mM MES pH 6.0, 150 mM KCl, 35 °C; ARIA2.1

B1: SGTA N-terminal dimerisation domain (SGTA_NT), residues 1-69 (domain or fragment, UniProt O43765 1-69, looked up)
chain: MDNKKRLAYAIIQFLHDQLRHGGLSSDAQESLEVAIQCLETAFGVTVEDSDLALPQTLPEIFEAAATGK
Q: Which results are given for B1?
A: Kd [1]: 3.7 µM; stoichiometry N [1]: 1 SGTA dimer: UBL monomer; Kd [2]: 3 µM; dH [2]: 5900 ± 110; stoichiometry N [2]: 0.949 ± 0.013; stoichiometry N [3]: 2
